According to patent US6416738:
Blank lines part the entries; values can stand above or below the substance they belong to.

Columns and labels:
[1] = molecular target: NR-LU-10 antigen (approximately 40 kilodalton glycoprotein antigen expressed on most carcinomas) (human) (UniProt P16422); test: limiting antigen ELISA, percent of native NR-LU-10
[2] = molecular target: NR-LU-10 antigen (approximately 40 kilodalton glycoprotein antigen expressed on most carcinomas) (human) (UniProt P16422); test: ELISA, percent of native NR-LU-10 (thiol biotinylation)
[3] = molecular target: NR-LU-10 antigen on LS-180 tumor cells (human) (UniProt P16422); test: binding to LS-180 tumor cells at antigen excess, percent of native NR-LU-10
Chain of NR-LU-10 antigen on LS-180 tumor cells (human) (P16422 24-314): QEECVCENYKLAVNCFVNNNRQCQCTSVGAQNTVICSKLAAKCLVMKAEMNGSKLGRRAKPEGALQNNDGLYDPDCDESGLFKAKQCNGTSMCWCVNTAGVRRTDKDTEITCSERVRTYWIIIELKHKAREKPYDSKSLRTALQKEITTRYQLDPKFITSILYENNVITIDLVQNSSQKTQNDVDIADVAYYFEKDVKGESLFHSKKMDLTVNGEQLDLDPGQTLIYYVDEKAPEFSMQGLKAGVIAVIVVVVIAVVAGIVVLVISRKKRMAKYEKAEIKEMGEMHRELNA

Streptavidin = Streptavidin (UniProt P22629); test: 20 ug radiolabeled protein with 400 ul streptavidin-agarose beads, spun and washed, counted
Chain of Streptavidin (P22629 37-163 limits assumed): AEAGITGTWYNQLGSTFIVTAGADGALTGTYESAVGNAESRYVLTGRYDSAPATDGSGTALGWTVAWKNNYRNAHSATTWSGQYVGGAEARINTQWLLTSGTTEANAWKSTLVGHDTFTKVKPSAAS

Avidin [4] = molecular target: Avidin (UniProt P02701); test: binding of radioiodinated biotinylated antibody to avidin-agarose
Chain of Avidin (P02701 25-152 limits assumed): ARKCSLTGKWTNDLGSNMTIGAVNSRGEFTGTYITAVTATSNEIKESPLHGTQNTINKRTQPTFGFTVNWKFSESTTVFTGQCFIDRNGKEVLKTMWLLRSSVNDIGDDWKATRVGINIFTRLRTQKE

Avidin [5] = molecular target: Avidin (UniProt P02701); test: residual circulating radiolabeled antibody after avidin injection in mice, examined in vitro on immobilized biotin
[6] = molecular target: NR-LU-10 antigen on LS-180 tumor cells (human) (UniProt P16422); test: cell binding, percent of native NR-LU-10 (LS-180 cells as described for Table 2)
[7] = molecular target: Biotinylated NR-LU-10 (lysine); test: cell-based or functional assay
[8] = molecular target: Biotinylated NR-LU-10 (thiol); test: cell-based or functional assay

Chain of NR-LU-10 antigen (approximately 40 kilodalton glycoprotein antigen expressed on most carcinomas) (human) (P16422 24-314): as the sequence (P16422 24-314) above

Substance: Biotinylated NR-LU-10 (lysine), molar offering 40:1, measured 23.1 biotins/Ab (antibody)
Immunoassessment (%) ELISA, immunoreactivity as compared to native antibody [1]: 27%

Substance: Biotinylated NR-LU-10 (thiol), molar offering 10:1, measured 4.7 biotins/Ab (antibody)
Immunoassessment (%) ELISA, immunoreactivity as compared to native antibody [2]: 114%

Substance: Biotinylated NR-LU-10 (thiol) (antibody)
% specific binding to immobilized avidin-agarose (Avidin [4]): 98%
% of biotinylated antibody complexed with avidin (Avidin [5]): 85%

Substance: Biotinylated NR-LU-10 (lysine), molar offering 13:1, measured 11.1 biotins/Ab (antibody)
Immunoassessment (%) ELISA, immunoreactivity as compared to native antibody [1]: 69%
Immunoassessment (%) Cell Binding [3]: 102%

Substance: Biotinylated NR-LU-10 (lysine), molar offering 5:1, measured 3.4 biotins/Ab (antibody)
Immunoassessment (%) ELISA, immunoreactivity as compared to native antibody [1]: 86%

Substance: Biotinylated NR-LU-10 (lysine) (antibody)
% specific binding to immobilized avidin-agarose (Avidin [4]): 98%

Substance: Biotinylated NR-LU-10 (lysine), molar offering 20:1, measured 13.4 biotins/Ab (antibody)
Immunoassessment (%) ELISA, immunoreactivity as compared to native antibody [1]: 36%
Immunoassessment (%) Cell Binding [3]: 106%

Substance: Biotinylated human asialoorosomucoid (from UniProt P02763 19-201)
% radioactivity in Pellet (bound to streptavidin-agarose) (Streptavidin): 90%
% radioactivity in Supernatant (not bound to streptavidin-agarose) (Streptavidin): 10%

The next lines start with the values.

Immunoassessment (%) ELISA, immunoreactivity as compared to native antibody [1]: 73%
Immunoassessment (%) Cell Binding [3]: 100%
Substance: Biotinylated NR-LU-10 (lysine), molar offering 10:1, measured 8.5 biotins/Ab (antibody)

% radioactivity in Pellet (bound to streptavidin-agarose) (Streptavidin): 92%
% radioactivity in Supernatant (not bound to streptavidin-agarose) (Streptavidin): 7.7%
Substance: Biotinylated human orosomucoid, PIP-125-labeled (from UniProt P02763 19-201)

Immunoassessment (%) ELISA, immunoreactivity as compared to native antibody [2]: 95%
Immunoassessment (%) Cell Binding [6]: 100%
Substance: Biotinylated NR-LU-10 (thiol), molar offering 100:1, measured 6.1 biotins/Ab (antibody)

Immunoassessment (%) ELISA, immunoreactivity as compared to native antibody [2]: 102%
Immunoassessment (%) Cell Binding [6]: 100%
Substance: Biotinylated NR-LU-10 (thiol), molar offering 50:1, measured 6.5 biotins/Ab (antibody)

blood pool concentration of biotinylated antibody in mice after avidin administration [7]: 10 fold
circulating antibody level in mice after avidin administration (% of injected dose) [8]: 35
Substance: Avidin (from UniProt P02701 25-152)
